Test results reported in PMC8535069.

B1: His6-RGS19 (natural protein)
chain: MPTPHEAEKQITGPEEADRPPSMSSHDTASPAAPSRNPCCLCWCCCCSCSWNQERRRAWQASRESKLQPLPSCEVCATPSPEEVQSWAQSFDKLMHSPAGRSVFRAFLRTEYSEENMLFWLACEELKAEANQHVVDEKARLIYEDYVSILSPKEVSLDSRVREGINKKMQEPSAHTFDDAQLQIYTLMHRDSYPRFLSSPTYRALLLQGPSQSSSEA

Key:
[1] = biological target: Gαo with the Gln52 mutation; assay: co-IP; N2a cells co-transfected 24 h with Gαo-GFP constructs and His6-RGS19 (1:1) or mRFP-Gβ1/mRFP-Gγ3 (1:1:1); lysate in GST-lysis buffer (20 mM Tris-HCl pH 8.0, 1% Triton X-100, 10% glycerol in PBS); Gαo-GFP precipitated with GST-tagged GFP nanobody and glutathione Sepharose 4B overnight at 4 °C; Western blot against GFP, mRFP, His6; blots quantified, normalised to the precipitated Gαo, 5 experiments
[2] = biological target: Gαo[Gln52Pro] and Gαo[Gln52Arg]; assay: as above

| Molecule | fold reduction of co-precipitation against wild-type Gαo [1] | fold reduction of co-precipitation against wild-type Gαo [2] |
| --- | --- | --- |
| Gβ1γ3 heterodimer (mRFP-Gβ1 and mRFP-Gγ3) (from UniProt P62873 1-340; P63215 1-75) (complex) | 2 to 4 fold |  |
| B1 |  | 2 to 3 fold |
